Measurements published in PMC9371974 (Nature Structural & Molecular Biology, 2022).

What was measured:
[1] = target: recombinant mouse PrP flexible tail fragment (rmPrP23-110) (Mus musculus, UniProt P04925); experiment: ELISA; details: both partners purified
[2] = target: globular domain fragment of recombinant human PrP (rhPrP121-230) (Homo sapiens, UniProt P04156); experiment: ELISA; details: both partners purified

B1:  (antibody, V domains shown)
VH: QVQLQQSGTELVMPGASVKMSCKASGYTFTDYWMHWVKQRPGQGLEWIGSIDPSDSYTSHNEKFKGKATLTVDESSSTAYMQLSSLTSEDSAVYFCSRSGYGYAAMEYWGQGTSVTVSS
VL: DIVLTQSPAILSVSPGERVSFSCRASQNIGTSIHWYQQRTNESPRLIIKYASESISGIPSRFSGSGSGTDFTLSINSVESEDIADYYCQQSNTWPYTFGGGTKLELK
notes: also called holo-Y104A; hcY104A IgG holoantibody
B1: no binding [1]; binds [2].
